Source: patent US20220211798A1, “THERAPY GUIDANCE AND/OR THERAPY MONITORING FOR A TREATMENT WITH ANGIOTENSIN-RECEPTOR-AGONIST AND/OR A PRECURSOR THEREOF” (4TEEN4 PHARMACEUTICALS GMBH, priority 2018, published 2022)
Entries after “also recorded” stand apart in the source; their conditions may differ.

Key:
[1] = tested on: healthy Black 6 mice injected with DPP3; assay: Effect of Valsartan in healthy mice injected with DPP3; format: in vivo
Description: The effect of an antagonist for the type I angiotensin II receptor (ATR1), Valsartan, in healthy mice injected with DPP3 was studied by monitoring the shortening fraction. In this experiment, healthy Black 6 mice (8-12 weeks, group size refer to table 8) consumed water with 50 mg/kg Valsartan per day or just water (Table 8) for a period of two weeks. Subsequently, both groups received an intravenous injection of native DPP3 (600 μg/kg) and the shortening fraction was assessed according to Gao et al., 2011 at 15, 60 and 120 minutes (FIG. 12).

[2] = tested on: Patients with vasodilatory shock; settings: vasodilatory shock (80% in septic shock); cited from earlier work
[3] = tested on: AngII-infused hypertensive mice; settings: cited from earlier work
[4] = tested on: Wild type Black 6 mice; assay: Effect of native DPP3 injection in healthy mice; format: in vivo; settings: 600 μg/kg intravenously, compared to PBS control
Description: The effect of native hDPP3 injection in healthy mice was studied by monitoring the shortening fraction and renal resistive index.
Wild type Black 6 mice (8-12 weeks, group size refer to table 3) were acclimated during 2 weeks and a baseline echocardiography was done. The mice were randomly allocated to one of the two groups and, subsequently, native DPP3 protein or PBS were injected intravenously via a retro-orbital injection with a dose of 600 μg/kg for DPP3 protein.
After DPP3 or PBS injection, cardiac function was assessed by echocardiography (Gao et al. 2011) and renal function assessed by renal resistive index (Lubas et al., 2014, Dewitte et al, 2012) at 15, 60 and 120 minutes (FIG. 3).

[5] = tested on: normotensive mice; settings: cited from earlier work

CCCCC(=O)N(Cc1ccc(-c2ccccc2-c2nnn[nH]2)cc1)[C@H](C(=O)O)C(C)C [Valsartan]
shortening fraction after DPP3 injection ([1]; 50 mg/kg Valsartan per day in water for two weeks, then native DPP3 600 μg/kg intravenous): rescued; also recorded: no signs of heart dysfunction

Asp-Arg-Val-Tyr-Ile-His-Pro-Phe (DRVYIHPF; listed as Homo sapiens) [angiotensin II]
hypotension [2]: significant correction of hypotension
survival to 28 days [2]: more likely to survive to 28 days

B1: native DPP3: native human Dipeptidyl peptidase 3 purified from human erythrocyte lysate (protein)
chain: ADTQYILPNDIGVSSLDCREAFRLLSPTERLYAYHLSRAAWYGGLAVLLQTSPEAPYIYALLSRLFRAQDPDQLRQHALAEGLTEEEYQAFLVYAAGVYSNMGNYKSFGDTKFVPNLPKEKLERVILGSEAAQQHPEEVRGLWQTCGELMFSLEPRLRHLGLGKEGITTYFSGNCTMEDAKLAQDFLDSQNLSAYNTRLFKEVDGEGKPYYEVRLASVLGSEPSLDSEVTSKLKSYEFRGSPFQVTRGDYAPILQKVVEQLEKAKAYAANSHQGQMLAQYIESFTQGSIEAHKRGSRFWIQDKGPIVESYIGFIESYRDPFGSRGEFEGFVAVVNKAMSAKFERLVASAEQLLKELPWPPTFEKDKFLTPDFTSLDVLTFAGSGIPAGINIPNYDDLRQTEGFKNVSLGNVLAVAYATQREKLTFLEEDDKDLYILWKGPSFDVQVGLHELLGHGSGKLFVQDEKGAFNFDQETVINPETGEQIQSWYRSGETWDSKFSTIASSYEECRAESVGLYLCLHPQVLEIFGFEGADAEDVIYVNWLNMVRAGLLALEFYTPEAFNWRQAHMQARFVILRVLLEAGEGLVTITPTTGSDGRPDARVRLDRSKIRSVGKPALERFLRRLQVLKSTGDVAGGRALYEGYATVTDAPPECFLTLRDTVLLRKESRKLIVQPNTRLEGSDVQLLEYEASAAGLIRSFSERFPEDGPELEEILTQLATADARFWKGPSEAPSGQA
shortening fraction ([1]; native DPP3 600 μg/kg intravenous, mice on water without Valsartan): significant decrease in the shortening fraction
blood pressure [3]: reduced blood pressure
heart rate [3]: without changing heart rate
renal resistive index (renal function) [4]: renal resistive index increase
shortening fraction [4]: significantly reduced shortening fraction
renal resistive index (renal function) ([4]; listed as DPP3): increased renal resistive index
shortening fraction ([4]; listed as DPP3): shortening fraction reduction
blood pressure [5]: no alteration in blood pressure
